The values below come from patent US20190315854A1 (BEIJING VDJBIO, published 2019).

Like-named read-outs stand apart in the source and are kept apart here.

Experiment [1] has as its target T1, IL-6 receptor on DS-1 cells (ATCC CRL 11102) (UniProt P08887 20-468, limits assumed).
T1 sequence (looked up): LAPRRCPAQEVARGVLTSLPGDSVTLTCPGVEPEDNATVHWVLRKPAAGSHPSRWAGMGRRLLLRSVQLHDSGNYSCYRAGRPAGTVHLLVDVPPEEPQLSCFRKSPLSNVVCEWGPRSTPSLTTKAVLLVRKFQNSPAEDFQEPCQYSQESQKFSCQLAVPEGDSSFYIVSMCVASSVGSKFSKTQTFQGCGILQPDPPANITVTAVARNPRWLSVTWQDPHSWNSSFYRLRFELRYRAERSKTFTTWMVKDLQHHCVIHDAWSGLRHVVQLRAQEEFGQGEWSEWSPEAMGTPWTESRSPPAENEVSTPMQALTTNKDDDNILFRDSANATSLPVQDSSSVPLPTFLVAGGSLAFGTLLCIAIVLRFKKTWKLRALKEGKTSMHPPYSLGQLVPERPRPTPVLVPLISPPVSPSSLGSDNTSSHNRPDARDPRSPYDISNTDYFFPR
The experiment can be described thus: cell-based or functional assay.

The target in experiment [2] is T2, sIL-6R (soluble IL-6 receptor; SBH Sciences) (human, UniProt P08887 20-365).
T2 construct: also called human IL-6R
T2 sequence: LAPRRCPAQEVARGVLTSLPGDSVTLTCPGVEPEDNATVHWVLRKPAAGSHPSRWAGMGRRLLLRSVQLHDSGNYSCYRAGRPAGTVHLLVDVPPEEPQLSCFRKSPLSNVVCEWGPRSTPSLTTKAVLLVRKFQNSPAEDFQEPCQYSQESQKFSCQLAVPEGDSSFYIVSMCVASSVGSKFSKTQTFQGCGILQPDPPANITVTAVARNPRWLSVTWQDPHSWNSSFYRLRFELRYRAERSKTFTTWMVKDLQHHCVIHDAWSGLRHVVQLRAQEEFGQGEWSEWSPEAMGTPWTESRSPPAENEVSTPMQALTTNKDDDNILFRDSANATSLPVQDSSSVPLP
In words: SPR (BIAcore 3000), antibody on chip, sIL-6R analyte, 25 C. As to the method: (§1) All SPR measurements were performed on a BIAcore 3000 instrument (GE Biosciences, Piscataway, N.J.). BIAcore Software-BIAcore 3000 Control Software V3.2 was used for the operation and control of the BIAcore 3000 instrument. BiaEvaluation Software V4.1 was used for the analysis of SPR data from the BIAcore 3000 instrument and data was plotted using Graph Pad Prism Software Version 5. […] The indicated antibodies were used as the ligand for the construction of the reference channel of the chip. […] Each sample was injected for 3 min at a flow rate of 30 μL/min to allow for binding to chip-bound antibody. Next, binding buffer without analyte was sent over the chip at the same flow rate to allow for dissociation of bound analyte. After 500s, remaining bound analyte was removed by injecting regeneration solution (1M Formic acid). Data was analyzed by using the Kinetics Wizard and the manual fitting programs that are both included with the BiaEvaluation Software V4.1.

Experiment [3] has as its target T2, sIL-6R (soluble IL-6 receptor; SBH …). The experiment is described as above. As to the method: as §1
The source holds these as a separate data set.

Experiment [4] shares this target. In words: SPR; ratio of KD at pH 6.0 to KD at pH 7.4. How it is done:
as §1
(§2) SPR measurements at pH 7.4 and pH 6.0 were performed in parallel and KD values calculated according to the protocol as detailed in Example 1. The pH dependence is calculated as the ratio between the KD value at pH 6.0 and the KD value at pH 7.4, which indicates the fold of affinity decrease from the pH7.4 to pH6.0. If the pH dependence of a subject antibody described herein is over 1, it means that the antibody binds to IL-6R in such a pH-dependent manner that its binding to IL-6R at pH7.4 is higher than at pH6.0. If the pH dependence of a subject antibody described herein is lower than 1, it means that the antibody binds to IL-6R in such a pH-dependent manner that its binding to IL-6R at pH6.0 is higher than at pH7.4.

Experiment [5] has the same target. In words: SPR (BIAcore 3000), antibody on chip, sIL-6R analyte, 25 C. How it is done:
as §1
This is another data set of the same source.

Experiment [6] shares this target. In words: SPR (BIAcore 3000), antibody on chip, sIL-6R analyte, pH 6.0. How it is done: as §1, §2
For experiment [7] the target is unchanged. The experiment can be described thus: SPR (BIAcore 3000), antibody on chip, sIL-6R analyte, pH 7.4. As to the method: as §1, §2
For experiment [8] the target is unchanged. In words: SPR (BIAcore 3000), antibody on chip, sIL-6R analyte, pH 6.0. How it is done: as §1, §2
The source holds these as a separate data set.

Experiment [9] shares this target. The experiment can be described thus: SPR (BIAcore 3000), antibody on chip, sIL-6R analyte, pH 7.4. How it is done: as §1, §2
This is another data set of the same source.

B1: 204# (antibody, human IgG1, kappa, V domains shown)
VH: QVQLQESGPGLVRPSQTLSLTCTVSGYSITSDHAWSWVRQPPGRGLEWIGFISYSGMTTYNPSLKSRVTMLRDTSKNQFSLRLSSVTAADTAVYYCARCLARITAMDYWGQGSLVTVSS
VL: DIQMTQSPSSLSASVGDRVTITCRASQDISSYLNWYQQKPGKAPKLLIYYTSRLHSGVPSRFSGSGSGTDFTFTISSLQPEDIATYYCGQGNRLPYTFGQGTKVEIKR
B1: in [1], the “IC50 (µg/ml), inhibition of DS-1 cell proliferation, MTS assay, IL6 2 ng/mL” value was 0.0362 µg/mL. For the same molecule, in experiment [2], the Kd is 0.0143 nM, the “Relative Affinity” value was 199 fold vs 25 (Tocilizumab), the koff turned out to be 3.28e-06 s⁻¹ and the on-rate constant (kon) was found to be 229000 M⁻¹ s⁻¹.

B2: 249# (antibody, human IgG1, kappa, V domains shown)
VH: QVQLQESGPGLVRPSQTLSLTCTVSGYSITSDHAWSWVRQPPGRGLEWIGYISYSGMTTYNPSLKSRVTMLRDTSKNQFSLRLSSVTAADTAVYYCARCLARATAMDYWGQGSLVTVSS
VL: DIQMTQSPSSLSASVGDRVTITCRASQDISSYLNWYQQKPGKAPKLLIYYTSRLHSGVPSRFSGSGSGTDFTFTISSLQPEDIATYYCGQGNRLPYTFGQGTKVEIKR
Take B2: in experiment [3], binding was characterised by a dissociation constant (Kd) of 0.241 nM, the “Relative Affinity” value is 11.6 fold vs 25 (Tocilizumab), the koff turned out to be 3.39e-05 s⁻¹ and the association rate constant (kon) was 141000 M⁻¹ s⁻¹.

B3: 231# (antibody, human IgG1, kappa, V domains shown)
VH: QVQLQESGPGLVRPSQTLSLTCTVSGYSITSDHAWSWVRQPPGRGLEWIGYISYSGITTYNPSLKSRVTMLRDTSKNQFSLRLSSVTAADTAVYYCARTLARMTAIDFWGQGSLVTVSS
VL: DIQMTQSPSSLSASVGDRVTITCRASQDISSYLNWYQQKPGKAPKLLIYYTSRLHSGVPSRFSGSGSGTDFTFTISSLQPEDIATYYCQQGNTLPYTFGQGTKVEIKR
notes: also called Sample # 231
With B3, the “pH dependence (Fold of affinity decrease)” value in experiment [4] came out at 95.5 fold. In addition, in experiment [5], the Kd is 0.00112 nM, the “Relative Affinity” value is 2820 fold vs 25 (Tocilizumab), the koff worked out at 1.48e-07 s⁻¹ and the kon stood at 132000 M⁻¹ s⁻¹. In experiment [6], this molecule came in with a Kd of 0.107 nM, a koff of 3.1e-05 s⁻¹ and an on-rate (kon) of 291000 M⁻¹ s⁻¹. In [7], this molecule yielded a Kd of 0.00112 nM, a koff of 1.48e-07 s⁻¹ and a kon of 132000 M⁻¹ s⁻¹.

B4: 251# (antibody, human IgG1, kappa, V domains shown)
VH: QVQLQESGPGLVRPSQTLSLTCTVSGYSITSDHAWSWVRQPPGRGLEWIGYISYSGMITYNPSLKSRVTMLRDTSKNQFSLRLSSVTAADTAVYYCARSLARITAMDYWGQGSLVTVSS
VL: DIQMTQSPSSLSASVGDRVTITCRASQDISSYLNWYQQKPGKAPKLLIYYTSRLHSGVPSRFSGSGSGTDFTFTISSLQPEDIATYYCQQGNTLPYTFGQGTKVEIKR
notes: also called Sample # 251
Consider B4, for which, in experiment [3], the Kd was 0.805 nM, the “Relative Affinity” value is 3.5 fold vs 25 (Tocilizumab), the koff was determined as 0.00014 s⁻¹ and the kon is 173000 M⁻¹ s⁻¹.

B5: 237# (antibody, human IgG1, kappa, V domains shown)
VH: QVQLQESGPGLVRPSQTLSLTCTVSGYSITSDHAWSWVRQPPGRGLEWIGYISYSGMTTYNPSLKSRVTMLRDTSKNQFSLRLSSVTAADTAVYYCARCLARTTAMDYWGQGSLVTVSS
VL: DIQMTQSPSSLSASVGDRVTITCRASQDISSYLNWYQQKPGKAPKLLIYYTSRLHSGVPSRFSGSGSGTDFTFTISSLQPEDIATYYCGQGNRLPYTFGQGTKVEIKR
notes: also called Sample # 237
For B5, the “pH dependence (Fold of affinity decrease)” value in [4] turned out to be 2.63 fold. Further, in experiment [5], the Kd is 0.0605 nM, the “Relative Affinity” value was 52.2 fold vs 25 (Tocilizumab), the koff is 1.01e-05 s⁻¹ and the kon worked out at 166000 M⁻¹ s⁻¹. Moreover, in experiment [6], the Kd was 0.159 nM, the koff turned out to be 4.62e-05 s⁻¹ and the kon was 292000 M⁻¹ s⁻¹. In experiment [7], the Kd was determined as 0.0605 nM, the koff turned out to be 1.01e-05 s⁻¹ and the on-rate constant (kon) is 166000 M⁻¹ s⁻¹.

B6: 205# (antibody, human IgG1, kappa, V domains shown)
VH: QVQLQESGPGLVRPSQTLSLTCTVSGYSITSDHAWSWVRQPPGRGLEWIGFISYSGMTTYNPSLKSRVTMLRDTSKNQFSLRLSSVTAADTAVYYCARCLARTTAMDYWGQGSLVTVSS
VL: DIQMTQSPSSLSASVGDRVTITCRASQDISSYLNWYQQKPGKAPKLLIYYTSRLHSGVPSRFSGSGSGTDFTFTISSLQPEDIATYYCGQGNRLPYTFGQGTKVEIKR
On to B6, for which the “pH dependence (Fold of affinity decrease)” value in experiment [4] came out at 4.59 fold. Also, in experiment [2], the Kd was determined as 0.0122 nM, the “Relative Affinity” value was 234 fold vs 25 (Tocilizumab), the koff turned out to be 2.14e-06 s⁻¹ and the kon is 175000 M⁻¹ s⁻¹. In experiment [8], this molecule registered a Kd of 0.056 nM, a koff of 2.15e-05 s⁻¹ and a kon of 384000 M⁻¹ s⁻¹. Further, in experiment [9], binding was characterised by a dissociation constant (Kd) of 0.0122 nM, the koff turned out to be 2.14e-06 s⁻¹ and the on-rate constant (kon) worked out at 175000 M⁻¹ s⁻¹.

B7: 250# (antibody, human IgG1, kappa, V domains shown)
VH: QVQLQESGPGLVRPSQTLSLTCTVSGYSITSDHAWSWVRQPPGRGLEWIGYISYSGMTTYNPSLKSRVTMLRDTSKNQFSLRLSSVTAADTAVYYCARSLARITAMDYWGQGSLVTVSS
VL: DIQMTQSPSSLSASVGDRVTITCRASQDISSYLNWYQQKPGKAPKLLIYYTSRLHSGVPSRFSGSGSGTDFTFTISSLQPEDIATYYCQQGNTLPYTFGQGTKVEIKR
notes: also called Sample # 250
B7: in experiment [3], binding was put at a Kd of 0.354 nM, the “Relative Affinity” value is 7.9 fold vs 25 (Tocilizumab), the koff is 9.27e-05 s⁻¹ and the on-rate constant (kon) was determined as 262000 M⁻¹ s⁻¹.

B8: 209# (antibody, human IgG1, kappa, V domains shown)
VH: QVQLQESGPGLVRPSQTLSLTCTVSGYSITSDHAWSWVRQPPGRGLEWIGFISYSGMTTYNPSLKSRVTMLRDTSKNQFSLRLSSVTAADTAVYYCARSLARITAIDFWGQGSLVTVSS
VL: DIQMTQSPSSLSASVGDRVTITCRASQDISSYLNWYQQKPGKAPKLLIYYTSRLHSGVPSRFSGSGSGTDFTFTISSLQPEDIATYYCQQGNTLPYTFGQGTKVEIKR
notes: also called Sample # 209
For the molecule B8, in experiment [4], the “pH dependence (Fold of affinity decrease)” value was 65.5 fold. In experiment [5], the Kd worked out at 0.000669 nM, the “Relative Affinity” value was 4720 fold vs 25 (Tocilizumab), the koff came out at 1.37e-07 s⁻¹ and the on-rate (kon) was found to be 204000 M⁻¹ s⁻¹. In experiment [6], the Kd amounted to 0.0438 nM, the dissociation rate constant (koff) was 2.99e-05 s⁻¹ and the kon stood at 683000 M⁻¹ s⁻¹. In experiment [7], this molecule had a Kd of 0.000669 nM, a koff of 1.37e-07 s⁻¹ and a kon of 204000 M⁻¹ s⁻¹.
